Assay results as given in US20050064507.

What was measured:
[1] = system: T1, AKAP12 peptide AGWRKKTSFRKPKED (SEQ ID NO:99)
T1 sequence: AGWRKKTSFRKPKED

[2] = system: T2, ARHGAP6 peptide SAQITIPKDGQKRKKSLRKK (SEQ ID NO:156)
T2 sequence: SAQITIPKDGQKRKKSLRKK

[3] = system: T3, CHRM1 peptide RKIPKRPGSVHRTPSRQ (SEQ ID NO:83)
T3 sequence: RKIPKRPGSVHRTPSRQ

[4] = system: T4, CREB peptide VTDSQKRREILSRRPSYPKI (SEQ ID NO:141)
T4 sequence: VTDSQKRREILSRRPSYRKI

[5] = system: T5, CREB1 peptide EILSRRPSYRKILND (SEQ ID NO:106)
T5 sequence: EILSRRPSYRKILND

[6] = system: T6, KCNH2 peptide RQRKRKLSFRRRTDKD (SEQ ID NO:86)
T6 sequence: RQRKRKLSFRRRTDKD

[7] = system: T7, MARCKS peptide KKKKKRFSFKKSFKL (SEQ ID NO:80)
T7 sequence: KKKKKRFSFKKSFKL

[8] = system: T8, MARCKS peptide KKRFSFKKSFKLSGFSFKKN (SEQ ID NO:119)
T8 sequence: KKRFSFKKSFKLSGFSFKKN

[9] = system: T9, MCM2 peptide VQRHRSMRKTFARYLSFRRD (SEQ ID NO:129)
T9 sequence: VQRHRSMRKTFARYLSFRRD

[10] = system: T10, NEURL peptide ALRRPSLRREADD (SEQ ID NO:105)
T10 sequence: ALRRPSLRREADD

[11] = system: T11, NIK peptide WKGKRRSKARKKRK (SEQ ID NO:131)
T11 sequence: WKGKRRSKARKKRK

[12] = system: T12, PLD1 peptide KYKAFIRIPIPTRRHTFRRQ (SEQ ID NO:161)
T12 sequence: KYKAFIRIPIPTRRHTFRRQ

[13] = system: T13, SMARCA5 peptide MAQIERGEARIQRRISIKKA (SEQ ID NO:166)
T13 sequence: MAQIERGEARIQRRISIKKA

[14] = system: T14, calcium channel, voltage-dependent, L type, alpha peptide RDIRQSPKRGFLRSASLGRR (SEQ ID NO:147)
T14 sequence: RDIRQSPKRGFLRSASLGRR

[15] = system: T15, cyclophilin G peptide TEEKSKKRKKKHRKNSRKHK (SEQ ID NO:165)
T15 sequence: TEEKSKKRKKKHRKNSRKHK

[16] = system: T16, fit1 peptide VQMTWSYPDEKNKRASVRRR (SEQ ID NO:158)
T16 sequence: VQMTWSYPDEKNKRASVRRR

[17] = system: T17, gravin peptide KKFFTQGWAGWRKKTSFRKP (SEQ ID NO:154)
T17 sequence: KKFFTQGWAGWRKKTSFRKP

[18] = system: T18, kinesin 3C peptide LEKRGMLGKRPRRKSSRRKK (SEQ ID NO:133)
T18 sequence: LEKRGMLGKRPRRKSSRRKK

[19] = system: T19, nuclear RNA export factor 3 peptide VRYTPYTISPYNRKGSFRKQ (SEQ ID NO:143)
T19 sequence: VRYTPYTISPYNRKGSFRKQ

[20] = system: T20, p164-RhoGEF peptide PRLIRRGSKKRPAR (SEQ ID NO:82)
T20 sequence: PRLIRRGSKKRPAR

[21] = system: T21, peptide AGWRKKTSFRKPKED (SEQ ID NO:17)
T21 sequence: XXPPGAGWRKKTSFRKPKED

[22] = system: T22, peptide ALRAPKPTLRYFTTERF (SEQ ID NO:64)
T22 sequence: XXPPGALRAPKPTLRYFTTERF

[23] = system: T23, peptide ALRRPSLRREADD (SEQ ID NO:26)
T23 sequence: XXPPGALRRPSLRREADD

[24] = system: T24, peptide AVRDMRQTVAVGVIK (SEQ ID NO:62)
T24 sequence: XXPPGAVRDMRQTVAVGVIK

[25] = system: T25, peptide AWVTVHEKKSSRKSEYL (SEQ ID NO:43)
T25 sequence: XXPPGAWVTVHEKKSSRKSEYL

[26] = system: T26, peptide EEAEHKATKARLADK (SEQ ID NO:75)
T26 sequence: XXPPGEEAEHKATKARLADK

[27] = system: T27, peptide EILSRRPSYRKILND (SEQ ID NO:25)
T27 sequence: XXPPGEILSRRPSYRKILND

[28] = system: T28, peptide EKIKRSSLKKVDSLKK (SEQ ID NO:24)
T28 sequence: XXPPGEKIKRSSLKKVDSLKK

[29] = system: T29, peptide ENLRKVTTDKKSLAY (SEQ ID NO:54)
T29 sequence: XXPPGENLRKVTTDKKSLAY

[30] = system: T30, peptide FVHQASFKFGQGD (SEQ ID NO:41)
T30 sequence: XXPPGFVHQASFKFGQGD

[31] = system: T31, peptide KFARKSTRRSIRLPE (SEQ ID NO:4)
T31 sequence: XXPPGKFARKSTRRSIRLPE

[32] = system: T32, peptide QPEGLRSLKKPDRKKR (SEQ ID NO:42)
T32 sequence: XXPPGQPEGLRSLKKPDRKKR

[33] = system: T33, peptide RRRQKRRTGALVLSRGGKR (SEQ ID NO:71)
T33 sequence: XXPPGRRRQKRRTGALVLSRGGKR

[34] = system: T34, peptide RVKLGTLRRPEGP (SEQ ID NO:58)
T34 sequence: XXPPGRVKLGTLRRPEGP

[35] = system: T35, peptide VDNILKKSNKKLEEL (SEQ ID NO:61)
T35 sequence: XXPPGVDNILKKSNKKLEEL

[36] = system: T36, peptide VQQLLRSSNRRLEQL (SEQ ID NO:49)
T36 sequence: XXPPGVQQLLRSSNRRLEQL

[37] = system: T37, peptide WKGKRRSKARKKRK (SEQ ID NO:13)
T37 sequence: XXPPGWKGKRRSKARKKRK

[38] = system: T38, ribosomal protein S6 peptide AKRRRLSSLRASTSK (SEQ ID NO:120)
T38 sequence: AKRRRLSSLRASTSK

[39] = system: T39, titin peptide PFEVVWYKDKRQLRSSKKYK (SEQ ID NO:160)
T39 sequence: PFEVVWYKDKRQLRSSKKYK

PKC-delta was tested, and the in vitro phosphorylation (% of best substrate) [1] was 17, the in vitro phosphorylation, 1 uM peptide (% of best substrate) [2] was 29 and the in vitro phosphorylation, 10 uM peptide (% of best substrate) [2] was 31. For the same substance, the in vitro phosphorylation (% of best substrate) [3] was 38, the in vitro phosphorylation, 1 uM peptide (% of best substrate) [4] was 43 and the in vitro phosphorylation, 10 uM peptide (% of best substrate) [4] was 21. The in vitro phosphorylation (% of best substrate) [5] was 9, the in vitro phosphorylation (% of best substrate) [6] was 42 and the in vitro phosphorylation (% of best substrate) [7] was 24. It also gave an in vitro phosphorylation, 1 uM peptide (% of best substrate) [8] of 42, an in vitro phosphorylation, 10 uM peptide (% of best substrate) [8] of 16 and an in vitro phosphorylation, 1 uM peptide (% of best substrate) [9] of 32. It also gave an in vitro phosphorylation, 10 uM peptide (% of best substrate) [9] of 14, an in vitro phosphorylation (% of best substrate) [10] of 9 and an in vitro phosphorylation, 1 uM peptide (% of best substrate) [11] of 38. The in vitro phosphorylation, 10 uM peptide (% of best substrate) [11] was 29, the in vitro phosphorylation, 1 uM peptide (% of best substrate) [12] was 22 and the in vitro phosphorylation, 10 uM peptide (% of best substrate) [12] was 14. For the same substance, the in vitro phosphorylation, 1 uM peptide (% of best substrate) [13] was 13, the in vitro phosphorylation, 10 uM peptide (% of best substrate) [13] was 29 and the in vitro phosphorylation, 1 uM peptide (% of best substrate) [14] was 27. For the same substance, the in vitro phosphorylation, 10 uM peptide (% of best substrate) [14] was 13, the in vitro phosphorylation, 1 uM peptide (% of best substrate) [15] was 25 and the in vitro phosphorylation, 10 uM peptide (% of best substrate) [15] was 19. For the same substance, the in vitro phosphorylation, 1 uM peptide (% of best substrate) [16] was 18, the in vitro phosphorylation, 10 uM peptide (% of best substrate) [16] was 33 and the in vitro phosphorylation, 1 uM peptide (% of best substrate) [17] was 26. The in vitro phosphorylation, 10 uM peptide (% of best substrate) [17] was 14, the in vitro phosphorylation, 1 uM peptide (% of best substrate) [18] was 46 and the in vitro phosphorylation, 10 uM peptide (% of best substrate) [18] was 52. It also gave an in vitro phosphorylation, 1 uM peptide (% of best substrate) [19] of 33, an in vitro phosphorylation, 10 uM peptide (% of best substrate) [19] of 32 and an in vitro phosphorylation (% of best substrate) [20] of 40. For the same substance, the in vitro phosphorylation (% of best substrate) [21] was 17, the in vitro phosphorylation (% of best substrate) [22] was 1 and the in vitro phosphorylation (% of best substrate) [23] was 9. For the same substance, the in vitro phosphorylation (% of best substrate) [24] was 1, the in vitro phosphorylation (% of best substrate) [25] was 3 and the in vitro phosphorylation (% of best substrate) [26] was 0. It also gave an in vitro phosphorylation (% of best substrate) [27] of 9, an in vitro phosphorylation (% of best substrate) [28] of 10 and an in vitro phosphorylation (% of best substrate) [29] of 2. For the same substance, the in vitro phosphorylation (% of best substrate) [30] was 3, the in vitro phosphorylation (% of best substrate) [31] was 52 and the in vitro phosphorylation (% of best substrate) [32] was 3. It also gave an in vitro phosphorylation (% of best substrate) [33] of 1, an in vitro phosphorylation (% of best substrate) [34] of 1 and an in vitro phosphorylation (% of best substrate) [35] of 1. It also gave an in vitro phosphorylation (% of best substrate) [36] of 2, an in vitro phosphorylation (% of best substrate) [37] of 22 and an in vitro phosphorylation, 1 uM peptide (% of best substrate) [38] of 64. It also gave an in vitro phosphorylation, 10 uM peptide (% of best substrate) [38] of 32, an in vitro phosphorylation, 1 uM peptide (% of best substrate) [39] of 25 and an in vitro phosphorylation, 10 uM peptide (% of best substrate) [39] of 31.
